Usually kon stands for the second-order rate constant of association. Read a high kon as faster complex formation. For orientation: Kd means the equilibrium constant for the complex coming apart. Usually koff stands for the rate constant with which the complex falls apart.

Assay [1] deals with SARS-CoV-2 Spike on HIV-based pseudotyped virus (Spike plasmid BEI NR52310) (SARS-CoV-2) (UniProt P0DTC2). The experiment in a line: cell-based or functional assay.
Assay [2] has as its target mouse FcRn (mouse) (UniProt Q61559).
For assay [3] the target is unchanged. The experiment in a line: pH 5.6.
In the next assay the target is mouse FcγRI (mouse) (UniProt P26151).
mouse FcγRI (mouse), sequence (P26151 25-297 limits assumed): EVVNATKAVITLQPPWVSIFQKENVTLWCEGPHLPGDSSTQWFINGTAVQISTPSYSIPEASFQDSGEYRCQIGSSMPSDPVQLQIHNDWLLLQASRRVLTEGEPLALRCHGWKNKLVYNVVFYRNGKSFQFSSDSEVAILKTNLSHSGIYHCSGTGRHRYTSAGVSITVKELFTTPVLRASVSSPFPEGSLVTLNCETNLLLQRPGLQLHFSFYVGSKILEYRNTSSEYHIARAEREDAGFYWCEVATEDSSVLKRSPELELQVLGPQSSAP

mouse FcRn (mouse), sequence (Q61559 22-297 limits assumed, form in doubt, chain 1 of 2): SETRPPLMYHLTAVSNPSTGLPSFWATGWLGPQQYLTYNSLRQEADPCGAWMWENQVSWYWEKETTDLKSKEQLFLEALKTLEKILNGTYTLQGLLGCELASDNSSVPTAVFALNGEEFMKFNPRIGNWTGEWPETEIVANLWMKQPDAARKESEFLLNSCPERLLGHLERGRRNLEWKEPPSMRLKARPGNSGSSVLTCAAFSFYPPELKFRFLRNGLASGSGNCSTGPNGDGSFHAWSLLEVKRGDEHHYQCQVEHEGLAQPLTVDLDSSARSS
mouse FcRn (mouse), sequence (chain, as listed by the source limits assumed, form in doubt, chain 2 of 2): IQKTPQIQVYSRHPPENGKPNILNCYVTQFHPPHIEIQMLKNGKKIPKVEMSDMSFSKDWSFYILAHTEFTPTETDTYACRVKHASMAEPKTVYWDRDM

Substance “REGN10933 (recombinant mAb, reference IgG) (antibody)” had an IC50 (PsV neutralization) in assay [1] of 0.0044 mg/L.

“REGN10987 (recombinant mAb, reference IgG) (antibody)” registered an IC50 (PsV neutralization) in assay [1] of 0.03 mg/L.

The substance “mouse surrogate Multabody (HD37, mouse IgG2a Fc, mouse apoferritin), WT Fc” came in with an on-rate (kon) with mouse FcRn (mouse) [2] of 682000 M⁻¹ s⁻¹. In the assay with mouse FcRn (mouse) [3], this substance registered a Kd below 1 pM and a koff below 1e-07 s⁻¹. In the assay with mouse FcγRI (mouse), this substance showed a Kd below 1 pM, a koff below 1e-07 s⁻¹ and a kon of 939000 M⁻¹ s⁻¹.

In the assay with mouse FcRn (mouse) [2], mouse surrogate Multabody with LALAP Fc showed an on-rate (kon) of 2.4e+06 M⁻¹ s⁻¹. In the assay with mouse FcRn (mouse) [3], the Kd is below 1 pM and the koff was below 1e-07 s⁻¹.

The values above are taken from patent US20250011397A1.
